Results published in patent US7045552B2, “Pharmaceutical composition for improved administration of HIV gp41-derived peptides, and its use in therapy” (Trimeris, Inc., priority 2002, dated 2006).

Columns and labels:
HIV-1 gp41 (HIV-1) [1] = target: HIV-1 gp41 (HIV-1)
HIV-1 gp41 (HIV-1) [2] = target: HIV-1 gp41 (HIV-1); remark: listed apart in the source
HIV = conditions: cited from earlier work

T1249 (SEQ ID NO:5) (peptide) gave an IC50 (ng/ml), Magi-CCR5 infectivity assay; mannitol formulation (HIV-1 gp41 (HIV-1) [1]) of 3.6 ng/mL.

Work on T20 (SEQ ID NO:4) (peptide) yielded an IC50, antiviral potency by the methods of Example 2; PEG 1500 formulation (HIV-1 gp41 (HIV-1) [2]) of 6.6 ng/mL.

For “NNLLRAIEAQQHLLQLTVWGIKQLQARILAVERYLKDQ [DP107]”, the “50% effective concentration (EC50), blocked infection of T cells” value (HIV) is listed as 1000 ng/mL.
